Measurements: patent US20070269808A1 (published 2007)

How the values were obtained:
[1] = molecular target: Drosophila frizzled 2 (Dfz2) (Drosophila), Q9VVX3; assay: confocal immunofluorescence, human 293 cells transiently transfected with Dfz2, pretreated with chlorate and heparatinase
Notch = molecular target: T1, Notch (UniProt P07207 53-2703, limits assumed); assay: confocal immunofluorescence of cells incubated with Wg conditioned medium, anti-Wg antiserum and cy3 secondary antibody
T1 construct: whole, on cells

[2] = molecular target: Drosophila frizzled 2 (Dfz2) (Drosophila), Q9VVX3; assay: confocal immunofluorescence, Dfz2-transfected S2 cells incubated with Wg conditioned medium, anti-Wg antiserum

Drosophila frizzled 2 (Dfz2) (Drosophila), Q9VVX3, sequence (Q9VVX3 other isoform, or with tags, fused parts or gaps limits assumed): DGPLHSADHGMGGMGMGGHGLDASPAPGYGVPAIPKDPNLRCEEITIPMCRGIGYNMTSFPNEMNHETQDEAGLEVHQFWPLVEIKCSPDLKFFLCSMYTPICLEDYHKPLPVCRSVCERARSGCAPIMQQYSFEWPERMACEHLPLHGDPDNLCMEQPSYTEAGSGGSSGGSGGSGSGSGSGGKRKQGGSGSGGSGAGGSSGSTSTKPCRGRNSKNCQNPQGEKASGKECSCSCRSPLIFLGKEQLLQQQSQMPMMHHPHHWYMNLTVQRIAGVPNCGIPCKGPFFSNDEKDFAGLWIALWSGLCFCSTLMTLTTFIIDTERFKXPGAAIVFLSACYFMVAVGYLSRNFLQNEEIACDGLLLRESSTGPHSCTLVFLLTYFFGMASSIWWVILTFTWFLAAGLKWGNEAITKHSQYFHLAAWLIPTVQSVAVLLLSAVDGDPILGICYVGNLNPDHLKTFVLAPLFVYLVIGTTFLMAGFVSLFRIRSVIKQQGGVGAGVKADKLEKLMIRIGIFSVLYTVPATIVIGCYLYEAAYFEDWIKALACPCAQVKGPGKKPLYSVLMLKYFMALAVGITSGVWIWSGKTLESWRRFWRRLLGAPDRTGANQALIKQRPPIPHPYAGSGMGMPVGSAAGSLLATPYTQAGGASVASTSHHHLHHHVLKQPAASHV
T1 sequence (P07207 53-2703 limits assumed): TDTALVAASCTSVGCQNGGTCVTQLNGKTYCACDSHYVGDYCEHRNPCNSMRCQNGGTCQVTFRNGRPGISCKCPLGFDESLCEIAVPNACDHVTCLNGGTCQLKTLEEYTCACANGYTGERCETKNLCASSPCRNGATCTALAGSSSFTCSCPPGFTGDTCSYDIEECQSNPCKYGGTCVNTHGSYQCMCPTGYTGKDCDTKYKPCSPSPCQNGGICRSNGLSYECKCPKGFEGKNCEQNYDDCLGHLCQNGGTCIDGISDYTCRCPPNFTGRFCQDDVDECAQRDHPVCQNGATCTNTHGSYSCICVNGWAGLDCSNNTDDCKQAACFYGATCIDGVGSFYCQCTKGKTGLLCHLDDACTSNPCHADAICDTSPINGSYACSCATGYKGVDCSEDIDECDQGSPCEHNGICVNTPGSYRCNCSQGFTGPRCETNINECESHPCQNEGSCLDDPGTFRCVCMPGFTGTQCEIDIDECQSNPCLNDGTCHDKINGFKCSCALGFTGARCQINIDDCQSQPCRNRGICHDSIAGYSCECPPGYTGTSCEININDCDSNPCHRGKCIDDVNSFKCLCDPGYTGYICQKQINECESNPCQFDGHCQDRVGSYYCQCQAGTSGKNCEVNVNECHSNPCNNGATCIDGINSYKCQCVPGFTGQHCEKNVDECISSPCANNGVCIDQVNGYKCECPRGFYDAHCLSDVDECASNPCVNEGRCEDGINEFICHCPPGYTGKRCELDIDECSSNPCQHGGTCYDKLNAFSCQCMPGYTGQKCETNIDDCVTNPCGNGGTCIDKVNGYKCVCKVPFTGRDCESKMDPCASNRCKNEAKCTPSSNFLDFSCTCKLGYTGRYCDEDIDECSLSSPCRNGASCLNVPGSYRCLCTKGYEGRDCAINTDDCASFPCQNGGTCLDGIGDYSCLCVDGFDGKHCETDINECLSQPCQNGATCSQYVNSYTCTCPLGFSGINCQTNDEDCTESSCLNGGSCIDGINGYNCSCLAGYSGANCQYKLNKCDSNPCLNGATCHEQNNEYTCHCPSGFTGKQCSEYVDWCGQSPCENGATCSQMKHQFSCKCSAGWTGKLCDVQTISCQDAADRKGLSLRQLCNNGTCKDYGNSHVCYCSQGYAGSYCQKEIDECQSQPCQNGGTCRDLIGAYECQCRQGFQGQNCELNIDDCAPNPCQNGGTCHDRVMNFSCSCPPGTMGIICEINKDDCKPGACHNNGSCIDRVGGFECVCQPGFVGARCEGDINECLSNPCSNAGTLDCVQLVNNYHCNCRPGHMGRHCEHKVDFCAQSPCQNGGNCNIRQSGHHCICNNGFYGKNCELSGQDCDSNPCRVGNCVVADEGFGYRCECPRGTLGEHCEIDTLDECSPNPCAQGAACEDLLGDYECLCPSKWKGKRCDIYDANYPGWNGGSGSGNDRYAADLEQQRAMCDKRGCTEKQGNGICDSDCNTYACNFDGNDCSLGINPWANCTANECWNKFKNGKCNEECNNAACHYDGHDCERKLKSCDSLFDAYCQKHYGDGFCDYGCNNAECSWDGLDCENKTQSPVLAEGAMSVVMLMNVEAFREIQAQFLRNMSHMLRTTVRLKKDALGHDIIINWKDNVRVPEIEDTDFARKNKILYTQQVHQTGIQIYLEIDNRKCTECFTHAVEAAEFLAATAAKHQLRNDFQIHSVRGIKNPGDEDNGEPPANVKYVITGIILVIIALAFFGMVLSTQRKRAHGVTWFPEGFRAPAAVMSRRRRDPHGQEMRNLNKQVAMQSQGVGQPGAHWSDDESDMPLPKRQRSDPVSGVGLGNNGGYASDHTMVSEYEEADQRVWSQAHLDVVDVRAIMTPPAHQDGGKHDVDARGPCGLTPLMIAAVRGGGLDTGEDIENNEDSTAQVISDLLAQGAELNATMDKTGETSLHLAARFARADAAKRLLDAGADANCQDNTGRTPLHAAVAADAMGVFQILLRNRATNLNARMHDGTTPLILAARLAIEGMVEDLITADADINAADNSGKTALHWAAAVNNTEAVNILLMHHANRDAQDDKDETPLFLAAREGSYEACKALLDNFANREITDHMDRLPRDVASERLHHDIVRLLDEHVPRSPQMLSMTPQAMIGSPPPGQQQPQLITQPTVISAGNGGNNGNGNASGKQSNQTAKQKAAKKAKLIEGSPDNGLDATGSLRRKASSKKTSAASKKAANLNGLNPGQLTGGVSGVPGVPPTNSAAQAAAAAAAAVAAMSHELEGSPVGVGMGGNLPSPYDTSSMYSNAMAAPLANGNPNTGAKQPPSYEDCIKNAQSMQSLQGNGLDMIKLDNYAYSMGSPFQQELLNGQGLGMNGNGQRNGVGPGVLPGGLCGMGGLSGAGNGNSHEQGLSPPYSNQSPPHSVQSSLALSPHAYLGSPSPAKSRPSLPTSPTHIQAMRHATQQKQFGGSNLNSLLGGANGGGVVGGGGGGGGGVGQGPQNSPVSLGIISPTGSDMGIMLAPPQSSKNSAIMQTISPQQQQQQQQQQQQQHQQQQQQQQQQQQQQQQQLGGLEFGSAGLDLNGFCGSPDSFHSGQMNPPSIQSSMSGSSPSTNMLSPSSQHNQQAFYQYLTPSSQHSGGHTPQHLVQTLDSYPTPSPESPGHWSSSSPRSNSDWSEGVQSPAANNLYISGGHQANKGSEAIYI

- percent of transfected cells positive [1]: 10 to 20%
- binding result (Notch): no binding
- percent of cells stained [2]: 80%
B1: wingless (Wg) protein (ligand, Drosophila, UniProt P09615 18-468, looked up)
chain: GSSLSQVEGKQKSGRGRGSMWWGIAKVGEPNNITPIMYMDPAIHSTLRRKQRRLVRDNPGVLGALVKGANLAISECQHQFRNRRWNCSTRNFSRGKNLFGKIVDRGCRETSFIYAITSAAVTHSIARACSEGTIESCTCDYSHQSRSPQANHQAGSVAGVRDWEWGGCSDNIGFGFKFSREFVDTGERGRNLREKMNLHNNEAGRAHVQAEMRQECKCHGMSGSCTVKTCWMRLANFRVIGDNLKARFDGATRVQVTNSLRATNALAPVSPNAAGSNSVGSNGLIIPQSGLVYGEEEERMLNDHMPDILLENSHPISKIHHPNMPSPNSLPQAGQRGGRNGRRQGRKHNRYHFQLNPHNPEHKPPGSKDLVYLEPSPSFCEKNLRQGILGTHGRQCNETSLGVDGCGLMCCGRGYRRDEVVVVERCACTFHWCCEVKCKLCRTKKVIYTCL
notes: mature; Used as concentrated conditioned medium, not purified; It was detected as bands of about 52 kD, 'the size of the mature Wg protein'; also called soluble Wg protein; metabolically labeled Wg protein
